Measurements: US20170281765A1 (SORRENTO THERAPEUTICS, published 2017)

Target: T1, human PD-L1 expressed on the cell surface (human, UniProt Q9NZQ7 19-290)
T1 construct: whole, on cells; also called CHO-PD-L1
Test: flow cytometry on anti-CD3 activated human lymphocytes (CD19 negative gate), PE anti-human Ig detection
Method: This example provides a characterization of the disclosed anti-PD-L1 antibodies binding to human PD-L1 expressed on human lymphocytes. Human peripheral blood mononuclear cells were activated by culture with anti-CD3 for three days to promote expression of PD-L1. Binding was assessed by adding serial dilutions of the antibody to the activated lymphocytes. After washing, binding was detected by staining with a phycoerythrin labeled anti-human Ig reagent followed by analysis using a FACS Aria (Becton Dickinson, San Jose, Calif.). Since the anti-human Ig reagent reacts with immunoglobulin on B lymphocytes the cells were co-staining with an anti-human CD19 APC-Cy5 reagent.

T1 sequence (Q9NZQ7 19-290): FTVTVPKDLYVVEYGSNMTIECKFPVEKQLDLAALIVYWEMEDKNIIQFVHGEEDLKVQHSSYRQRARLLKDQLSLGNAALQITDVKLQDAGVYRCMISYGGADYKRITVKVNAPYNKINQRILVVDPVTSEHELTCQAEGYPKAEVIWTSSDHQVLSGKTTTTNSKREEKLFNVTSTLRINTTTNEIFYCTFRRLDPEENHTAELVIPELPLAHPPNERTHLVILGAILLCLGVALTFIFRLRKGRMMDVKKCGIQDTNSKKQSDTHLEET

| EC50 | Binder |
| --- | --- |
| ~0.1 nM | anti-PD-L1 antibody H6 (antibody, V domains shown, Fully human antibody of an IgG class) VH: QMQLVQSGAEVKKPGSSVKVSCKASGGTFSSYAISWVRQAPGQGLEWMGGIIPIFGTANYAQKFQGRVTITADESTSTAYMELSSLRSEDTAVYYCARGNIVATITPLDYWGQGTLVTVSS VL: SYELMQPPSVSVAPGKTATIACGGENIGRKTVHWYQQKPGQAPVLVIYYDSDRPSGIPERFSGSNSGNTATLTISRVEAGDEADYYCQVWDSSSDHRIFGGGTKLTVL |
| ~0.1 nM | anti-PD-L1 antibody H10 (antibody, V domains shown, Fully human antibody of an IgG class) VH: EVQLVQSGGGLVQPGGSLRLSCAASGFTFSSYSMNWVRQAPGKGLEWVSYISSSSSTIYYADSVKGRFTISRDNAKNSLYLQMNSLRDEDTAVYYCARGDYYYGMDVWGQGTTVTVSS VL: EIVLTQSPSSLSASIGDRVTLTCRASQSIRRFLNWYQQKPGKAPELLIYTASSLQSGVPSRFSGSGSGTDFTLTINSLQPEDFATYYCQQSYAVSPYTFGQGTKVEIR |
